Source: patent US20200017552A1
Read-outs that look alike come from different tables or passages of the source.

What was measured:
[1] = molecular target: HA of Ft. Monmouth influenza virus (on virions) (influenza virus strain Ft. Monmouth); assay: cell-based or functional assay
[2] = molecular target: HA of Ft. Monmouth influenza virus (on virions) (influenza virus strain Ft. Monmouth); assay: cell-based or functional assay; remark: listed apart in the source

Row | Binder | EC50 values for inhibition of viral replication in vitro [1] | EC50 values for inhibition of viral replication in vitro [2]
1 | CIEQSFTTLFACQTAAEIWRAFGYTVKIMVDNGNCRLHVC (designed binder, modifications not checked) [HB1.6928.2.3] | 0.02 ng/mL | –
2 | TIEQSFTTLFAAQTAAEIWRAFGYTVKIMQDNGNWRLHVT (designed binder) [CS15990 A13_r31_TAWQT Thr-40-Thr] | – | 2 ng/mL
